The term EC50 denotes the midpoint of the concentration-response curve. A low value points to a more potent agent. For orientation: Kd means the equilibrium constant for the complex coming apart. A lower Kd goes with a tighter complex.

T1: human EpCAM-hFc (in-house production) (human, UniProt P16422 24-265, limits assumed)
T1 construct: not shown: human Fc
T1 sequence (looked up): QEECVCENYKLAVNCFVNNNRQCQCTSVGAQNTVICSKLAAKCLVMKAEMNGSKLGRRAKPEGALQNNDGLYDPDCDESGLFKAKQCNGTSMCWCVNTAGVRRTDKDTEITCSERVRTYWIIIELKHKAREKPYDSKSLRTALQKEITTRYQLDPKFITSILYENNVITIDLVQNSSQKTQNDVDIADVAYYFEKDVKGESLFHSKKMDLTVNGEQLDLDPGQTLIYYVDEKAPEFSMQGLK

T2: human CEACAM-5-His-Fc (Sino Biological, 1077-H03H) (human, UniProt P06731 35-685)
T2 construct: not shown: His tag and Fc
T2 sequence (looked up): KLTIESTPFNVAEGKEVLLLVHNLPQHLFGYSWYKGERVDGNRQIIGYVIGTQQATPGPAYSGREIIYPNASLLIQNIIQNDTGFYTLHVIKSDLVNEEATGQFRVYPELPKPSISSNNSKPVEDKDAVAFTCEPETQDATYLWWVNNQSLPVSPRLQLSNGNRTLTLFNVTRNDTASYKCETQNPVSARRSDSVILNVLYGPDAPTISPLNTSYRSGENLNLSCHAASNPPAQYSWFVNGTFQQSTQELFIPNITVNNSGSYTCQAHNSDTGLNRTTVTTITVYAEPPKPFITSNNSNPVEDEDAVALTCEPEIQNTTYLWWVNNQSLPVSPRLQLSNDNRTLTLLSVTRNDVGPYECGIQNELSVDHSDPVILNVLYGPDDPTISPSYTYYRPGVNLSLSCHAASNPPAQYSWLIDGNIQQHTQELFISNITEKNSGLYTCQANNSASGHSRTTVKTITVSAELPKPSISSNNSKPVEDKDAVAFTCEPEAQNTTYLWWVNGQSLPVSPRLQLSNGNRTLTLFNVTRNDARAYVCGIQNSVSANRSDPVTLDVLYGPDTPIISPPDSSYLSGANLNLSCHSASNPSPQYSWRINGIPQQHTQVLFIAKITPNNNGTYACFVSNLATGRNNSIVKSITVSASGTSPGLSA

B1: G1-AA/FS28-026 (antibody, human IgG1, kappa, L234A L235A, V domains shown)
VH: EVQLLESGGGLVQPGGSLRLSCAASGFTFSNYAMTWVRQAPGKGLEWVSSITPYYSKTDYADSVKGRFTISRDNSKNTLYLQMNSLRAEDTAVYYCARNWYRFDYWGQGTLVTVSS
VL: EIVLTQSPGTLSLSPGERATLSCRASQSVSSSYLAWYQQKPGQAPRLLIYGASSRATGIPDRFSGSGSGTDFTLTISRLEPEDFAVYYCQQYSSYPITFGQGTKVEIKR
notes: IgG1 LALA; also called FS28-026 mAb (in G1-AA format)
B2: G1-AA/FS28-091 (antibody, human IgG1, kappa, L234A L235A, V domains shown)
VH: B1 VH with S30T, T35S, T52K, Y55D, S56G, K57N, D59Y, W100R, Y101W, R102V
VL: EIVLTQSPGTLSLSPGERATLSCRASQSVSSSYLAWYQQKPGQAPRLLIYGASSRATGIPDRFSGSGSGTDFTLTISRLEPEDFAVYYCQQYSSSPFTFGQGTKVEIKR
notes: IgG1 LALA; also called FS28-091 mAb (in G1-AA format)
B3: G1-AA/FS28-024 (antibody, human IgG1, kappa, L234A L235A, V domains shown)
VH: EVQLLESGGGLVQPGGSLRLSCAASGFTLSYSSMSWVRQAPGKGLEWVSFITPSTGYTHYADSVKGRFTISRDNSKNTLYLQMNSLRAEDTAVYYCARRALTFDYWGQGTLVTVSS
VL: EIVLTQSPGTLSLSPGERATLSCRASQSVSSSYLAWYQQKPGQAPRLLIYGASSRATGIPDRFSGSGSGTDFTLTISRLEPEDFAVYYCQQASSYPLTFGQGTKVEIKR
notes: Complete human IgG1 with LALA mutation; also called FS28-024 mAb (in G1-AA format)

Changes are numbered by the printed parent chain.

Sequence of human Thrombomodulin (Peprotech, 100-58) (P07204 19-515 limits assumed): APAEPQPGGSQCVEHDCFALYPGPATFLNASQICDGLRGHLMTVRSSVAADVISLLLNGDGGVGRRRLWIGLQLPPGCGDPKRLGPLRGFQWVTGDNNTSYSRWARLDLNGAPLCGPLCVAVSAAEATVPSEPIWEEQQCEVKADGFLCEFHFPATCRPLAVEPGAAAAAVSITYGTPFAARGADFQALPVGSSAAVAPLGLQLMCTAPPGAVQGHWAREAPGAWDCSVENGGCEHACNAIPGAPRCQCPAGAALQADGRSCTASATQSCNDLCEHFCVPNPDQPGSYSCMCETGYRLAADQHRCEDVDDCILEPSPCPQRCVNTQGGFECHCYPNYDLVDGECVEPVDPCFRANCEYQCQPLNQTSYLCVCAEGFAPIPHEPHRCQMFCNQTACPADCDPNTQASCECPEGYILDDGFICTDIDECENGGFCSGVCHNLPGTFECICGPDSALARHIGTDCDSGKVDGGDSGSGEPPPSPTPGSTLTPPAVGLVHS

The target in one assay is human Thrombomodulin (Peprotech, 100-58) (human, UniProt P07204 19-515). The experiment in a line: ELISA, antigen coated at 1 ug/ml. The procedure:
(§1) A similar protocol was used as described in section 1.2.1 in which maxisorp plates were coated with 1 μg/ml of recombinant human MSLN-His-Avi, human CEACAM-5-His-Fc (Sino Biological, 1077-H03H), human E-Cadherin (R&D systems, 8505-EC), human Thrombomodulin (Peprotech, 100-58) or human EpCAM-hFc (in-house production). Binding of the anti-MSLN mAbs, tested at a concentration range of 0.02 to 1000 nM (3-fold dilutions) was detected using anti-human Fab-HRP (Sigma, A0293). Positive controls for the respective molecules included human EpCAM antibody (clone 2G8 from patent no. U.S. Pat. No. 8,236,308 B2) CEACAM-5 antibody (clone hMN15 from patent no. U.S. Pat. No. 8,771,690 B2), human E-Cadherin antibody, mouse IgG2b clone 180215 (R&D systems, MAB1838), human Thrombomodulin antibody, mouse IgG1, clone 501733 (R&D systems, MAB3947). The latter two were detected using goat anti mouse Fc-HRP (Sigma, A9309) as secondary mAb.
A general note: An ELISA detects its analyte on a solid surface through an enzyme-linked reagent.
As to B1, the binding result is on record as “no binding (tested: 1000 nM)”.
Same read-out and setting: next, B2: “no binding (tested: 1000 nM)”; B3: “no binding (tested: 1000 nM)”.

The target in a further assay is T1, human EpCAM-hFc (in-house production). The experiment in a line: ELISA, antigen coated at 1 ug/ml. The procedure: as §1
In the case of B1, the binding result is “no binding (tested: 1000 nM)”.
B2: the binding result is given as “no binding (tested: 1000 nM)”.
B3: the binding result is listed as “no binding (tested: 1000 nM)”.

In a further assay the target is T2, human CEACAM-5-His-Fc (Sino Biological, …). The experiment in a line: ELISA, antigen coated at 1 ug/ml. The procedure:
as §1
For B1, the binding result was “no binding (tested: 1000 nM)”.
Still for that read-out and setting: next, B2: “no binding (tested: 1000 nM)”; B3: “no binding (tested: 1000 nM)”.

A further assay deals with T3, human MSLN-His-Avi (human, UniProt Q13421 296-598, single biotin (BirA) in the biotinylated form).
T3 construct: Monomeric, made in HEK293-6E; Used both immobilised and in solution; also called hMSLN-His-Avi; biotinylated hMSLN-His-Avi
T3 sequence (Q13421 other isoform, or with tags, fused parts or gaps): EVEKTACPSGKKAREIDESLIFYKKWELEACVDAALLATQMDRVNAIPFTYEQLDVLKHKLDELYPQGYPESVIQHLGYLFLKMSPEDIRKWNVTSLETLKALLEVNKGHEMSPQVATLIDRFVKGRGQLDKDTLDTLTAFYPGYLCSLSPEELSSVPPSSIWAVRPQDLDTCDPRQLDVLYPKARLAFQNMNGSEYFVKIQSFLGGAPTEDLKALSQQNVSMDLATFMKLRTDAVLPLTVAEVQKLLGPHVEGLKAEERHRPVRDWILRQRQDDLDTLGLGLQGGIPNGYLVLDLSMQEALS
The experiment in a line: ELISA, hMSLN-His-Avi coated at 1 ug/ml.
As to B1, the half-maximal effective concentration (EC50) is approximately 0.5 nM and the maximum binding signal was found to be 3.
In turn, B2 yielded a concentration for a half-maximal effect (EC50) of approximately 0.5 nM and a maximum binding signal of 3.
For B3, the EC50 was approximately 0.5 nM and the maximum binding signal is 3.

The target in another assay is T3, human MSLN-His-Avi. The experiment in a line: SPR (Biacore), hMSLN-His-Avi immobilised at 50 RU, mAb injected. Here is the method:
Human MSLN-His-Avi was immobilised on flow cell 2 on a CM5 Series S BIAcore sensor chip (GE Healthcare, BR100530) using an amine coupling kit (GE Healthcare, BR10050) to approximately 200 response units (RU). Flow cell 1 was left blank for subtraction. HEK293-6E supernatants or purified proteins were adjusted with HBS-EP+(GE Healthcare) to approximately 50 nM anti-MSLN mAb per sample. Samples were injected over flow cell 1 and 2 for 2.5 min at 30 μl/min and then allowed to dissociate in HBS-EP buffer for 2.5 min. Regeneration was achieved by injecting 10 mM glycine pH 1.5 (GE Healthcare, BR100354) for 30 seconds at a rate of 30 μl/min. Subtracted data (flow cell 2−flow cell 1) were analysed using BIAevaluation 3.2 Software (GE Healthcare).
For each bin described in 2.1.3, the binding kinetics were determined using the same method as described in section 2.1.2, except that human or cyno MSLN-His-Avi was immobilised at 50 or 100 RU. Clones were tested at a concentration range of 81 nM to 0.33 nM in 3-fold dilutions.
For orientation: Surface plasmon resonance follows binding to a sensor surface in real time, without labels.
With B1, binding was put at a Kd of 0.21 nM.
In the case of B2, binding was put at a Kd of 1.24 nM.
B3 showed a dissociation constant (Kd) of 0.77 nM.

The values above are taken from patent US20220267421A1 (INVOX PHARMA, published 2022).
